Series [1] deals with the molecule itself. The series can be described thus: filament reconstitution seen by electron microscopy; protein incubated without DNA under the same conditions as the filament reconstitution; kind of microscopy not told.
Series [2] deals with the molecule itself. Nature of the series: cryo-EM structure; ICP8 double filament reconstituted with linear dsDNA carrying long ssDNA tails (T4 polymerase-treated); single-particle analysis of filament segments, 3.2 Å; DNA could not be built into the map.

B1: BALF2, DNA-binding protein of Epstein-Barr Virus (natural protein)
chain: MQGAQTSEDNLGSQSQPGPCGYIYFYPLATYPLREVATLGTGYAGHRCLTVPLLCGITVEPGFSINVKALHRRPDPNCGLLRATSYHRDIYVFHNAHMVPPIFEGPGLEALCGETREVFGYDAYSALPRESSKPGDFFPEGLDPSAYLGAVAITEAFKERLYSGNLVAIPSLKQEVAVGQSASVRVPLYDKEVFPEGVPQLRQFYNSDLSRCMHEALYTGLAQALRVRRVGKLVELLEKQSLQDQAKVAKVAPLKEFPASTISHPDSGALMIVDSAACELAVSYAPAMLEASHETPASLNYDSWPLFADCEGPEARVAALHRYNASLAPHVSTQIFATNSVLYVSGVSKSTGQGKESLFNSFYMTHGLGTLQEGTWDPCRRPCFSGWGGPDVTGTNGPGNYAVEHLVYAASFSPNLLARYAYYLQFCQGQKSSLTPVPETGSYVAGAAASPMCSLCEGRAPAVCLNTLFFRLRDRFPPVMSTQRRDPYVISGASGSYNETDFLGNFLNFIDKEDDGQRPDDEPRYTYWQLNQNLLERLSRLGIDAEGKLEKEPHGPRDFVKMFKDVDAAVDAEVVQFMNSMAKNNITYKDLVKSCYHVMQYSCNPFAQPACPIFTQLFYRSLLTILQDISLPICMCYENDNPGLGQSPPEWLKGHYQTLCTNFRSLAIDKGVLTAKEAKVVHGEPTCDLPDLDAALQGRVYGRRLPVRMSKVLMLCPRNIKIKNRVVFTGENAALQNSFIKSTTRRENYIINGPYMKFLNTYHKTLFPDTKLSSLYLWHNFSRRRSVPVPSGASAEEYSDLALFVDGGSRAHEESNVIDVVPGNLVTYAKQRLNNAILKACGQTQFYISLIQGLVPRTQSVPARDYPHVLGTRAVESAAAYAEATSSLTATTVVCAATDCLSQVCKARPVVTLPVTINKYTGVNGNNQIFQAGNLGYFMGRGVDRNLLQAPGAGLRKQAGGSSMRKKFVFATPTLGLTVKRRTQAATTYEIENIRAGLEAIISQKQEEDCVFDVVCNLVDAMGEACASLTRDDAEYLLGRFSVLADSVLETLATIASSGIEWTAEAARDFLEGVWGGPGAAQDNFISVAEPVSTASQASAGLLLGGGGQGSGGRRKRRLATVLPGLEV
notes: also called EBV BALF2; source: insect cells, purified
Consider B1, for which the binding result in series [1] is “binds”.

B2: ICP8, full-length (Herpes Simplex Virus 1 DNA-binding protein) (natural protein)
chain: METKPKTATTIKVPPGPLGYVYARACPSEGIELLALLSARSGDSDVAVAPLVVGLTVESGFEANVAVVVGSRTTGLGGTAVSLKLTPSHYSSSVYVFHGGRHLDPSTQAPNLTRLCERARRHFGFSDYTPRPGDLKHETTGEALCERLGLDPDRALLYLVVTEGFKEAVCINNTFLHLGGSDKVTIGGAEVHRIPVYPLQLFMPDFSRVIAEPFNANHRSIGEKFTYPLPFFNRPLNRLLFEAVVGPAAVALRCRNVDAVARAAAHLAFDENHEGAALPADITFTAFEASQGKTPRGGRDGGGKGAAGGFEQRLASVMAGDAALALESIVSMAVFDEPPTDISAWPLFEGQDTAAARANAVGAYLARAAGLVGAMVFSTNSALHLTEVDDAGPADPKDHSKPSFYRFFLVPGTHVAANPQVDREGHVVPGFEGRPTAPLVGGTQEFAGEHLAMLCGFSPALLAKMLFYLERCDGAVIVGRQEMDVFRYVADSNQTDVPCNLCTFDTRHACVHTTLMRLRARHPKFASAARGAIGVFGTMNSMYSDCDVLGNYAAFSALKRADGSETARTIMQETYRAATERVMAELETLQYVDQAVPTAMGRLETIITNREALHTVVNNVRQVVDREVEQLMRNLVEGRNFKFRDGLGEANHAMSLTLDPYACGPCPLLQLLGRRSNLAVYQDLALSQCHGVFAGQSVEGRNFRNQFQPVLRRRVMDMFNNGFLSAKTLTVALSEGAAICAPSLTAGQTAPAESSFEGDVARVTLGFPKELRVKSRVLFAGASANASEAAKARVASLQSAYQKPDKRVDILLGPLGFLLKQFHAAIFPNGKPPGSNQPNPQWFWTALQRNQLPARLLSREDIETIAFIKKFSLDYGAINFINLAPNNVSELAMYYMANQILRYCDHSTYFINTLTAIIAGSRRPPSVQAAAAWSAQGGAGLEAGARALMDAVDAHPGAWTSMFASCNLLRPVMAARPMVVLGLSISKYYGMAGNDRVFQAGNWASLMGGKNACPLLIFDRTRKFVLACPRAGFVCAASSLGGGAHESSLCEQLRGIISEGGAAVASSVFVATVKSLGPRTQQLQIEDWLALLEDEYLSEEMMELTARALERGNGEWSTDAALEVAHEAEALVSQLGNAGEVFNFGDFGCEDDNATPFGGPGAPGPAFAGRKRAFHGDDPFGEGPPDKKGDLTLDML
notes: also called full-length ICP8 form; source: insect cells, purified
On to B2, for which, in series [2], the binding result is recorded as “binds”.

The values above are taken from doi:10.1101/2025.06.25.661518, “Structural insights into DNA annealing and recombination by herpesviral DNA-binding proteins ICP8 and BALF2” (bioRxiv, 2025).
